The series concerns the molecule itself. Kind of series: SEC-MALS; 50 µl at 1.5 mg/ml on a Shodex PROTEIN KW-804 column, 0.4 ml/min, 150 mM KCl, 20 mM Tris-HCl pH 8.2.

B1: Maintenance of carboxysome distribution protein B (McdB) from Synechococcus elongatus PCC 7942, wild type (natural protein, UniProt Q8GJM6 1-152, looked up)
chain: MTDAFDRLKKRSRTPIAREGSLTTGPELSDRPLQLLPREFETFCDRYAVHAGDVIEAALDLVLLDPDLQQRLLQRLRQGNGSDRVWLGTACPRSWQQQLQQQAQDQGLSEADLLQEAIAQRLDLVLGQTTLREEVTLLRQELDQLKRKLHGW
notes: McdB of Synechococcus elongatus PCC 7942; also called Se McdB; β-McdB; source: E. coli BL21-AI, purified (HisTrap, Ulp1 cleavage, SEC); not shown: His-SUMO, N-terminal, cleaved
The stoichiometry N is a count of units in the complex or per binding partner. As to B1, the “stoichiometry N” value is 6.

B2: Se McdB[∆W152] (natural protein, Synechococcus elongatus PCC 7942, UniProt Q8GJM6 1-152, looked up)
chain: MTDAFDRLKKRSRTPIAREGSLTTGPELSDRPLQLLPREFETFCDRYAVHAGDVIEAALDLVLLDPDLQQRLLQRLRQGNGSDRVWLGTACPRSWQQQLQQQAQDQGLSEADLLQEAIAQRLDLVLGQTTLREEVTLLRQELDQLKRKLHG
notes: McdB of Synechococcus elongatus PCC 7942 with the final C-terminal tryptophan W152 deleted; Parent is m1; source: E. coli BL21-AI, purified (HisTrap, Ulp1 cleavage, SEC); not shown: His-SUMO, N-terminal, cleaved
In the case of B2, the “stoichiometry N” value stood at 6.

Source of the values: article PMC11321042, “An invariant C-terminal tryptophan in McdB mediates its interaction and positioning function with carboxysomes” (Molecular Biology of the Cell, 2024).
